Reference: PMC7108782, “Direct interaction of metastasis-inducing S100P protein with tubulin causes enhanced cell migration without changes in cell adhesion” (Biochemical Journal, 2020)
Like-named read-outs stand apart in the source and are kept apart here.

Key:
α,β-tubulin = assay: SPR binding of S100P to immobilised α,β-tubulin; design: species or system human; details: for Kd: mean ± SE, 3 experiments
Description: (§1) The coding sequences for full length (human) α-tubulin and for N-terminal and C-terminal halves of α or β-tubulin were generated using PCR with specific primers shown in Supplementary Table S1 and sub-cloned into pET16(b) for expressing and purifying His-tagged full-length α-tubulin and His-tagged tubulin fragments in E. coli, as described previously. β-tubulin was purchased from Abcam.
For SPR binding assays, α,β-tubulin proteins described earlier were immobilised on a carboxymethylated dextran surface of a CM5 chip using BS^3 for use in Biocore X100. Recombinant S100P produced as described previously was used as a ligand in different concentrations at 20, 50, 100, 200, 1000, 2000 nM for calculation of the equilibrium dissociation constant (Kd) from the association/dissociation rate constants and from the extent of binding near equilibrium (Supplementary Table S2), as described previously. To detect the effects of tubulin peptides on the interaction of tubulin, different concentrations of tagged and untagged peptides were mixed with 1 µM S100P first and the mixtures were then applied to the tubulin-coated chip. The relative changes in kinetics and binding extents with different peptides were calculated using software provided by the manufacturer.

Rama 37-T25 cells = assay: S100P-enhanced cell migration, Rama 37-T25; type: cell-based, rat; details: Rama 37-T25, doxycycline 1 µg/ml, 24 h
Description: Cell migration rate (%) = M/G × 100.

[1] = system: α and β-tubulin subunits and half molecules; assay: Gel overlay assay; type: binding, human; details: 3 µg/ml S100P, 1 μM proteins, 4°C overnight
Procedure: as §1
Equal molar proteins (1 μM) were subjected to SDS PAGE on 10% (w/v) polyacrylamide gels. One gel was stained with Coomassie Blue to check equal loading and the other electroblotted onto PVDF membrane. Three µg/ml S100P in Gel Overlay Buffer were added to the membrane and the contents incubated at 4°C overnight. After extensive washing, the presence of bound S100P was probed with mouse anti-S100P as described for Western blotting.

HeLa-A3 cells = assay: Cell adhesion assays, HeLa-A3; type: cell-based, human; details: HeLa A3, S100P induced vs uninduced, weak trypsin digestion, n = 3
Procedure: For kinetics of attachment either HeLa-A3 or COS-7 S10 cells were induced with 1 µg/ml doxycycline 48 h prior to experiment and 2 × 10^5 uninduced or induced cells in 1 ml were added to 24 well tissue culture dishes and allowed to adhere at 37°C. At the given time (30 min to 2 h) cells were washed 2× with PBS and detached with 250 µl 0.05% (w/v) trypsin in versene for 5 min at 37°C, neutralised in serum-containing media (SCM), counted and the percent of seeded cells recorded. For strength of adhesion, the same cells were seeded in 24 well tissue culture dishes so as to yield 80% confluence in 24 h. In all cases identical dishes were set up for test and control. After 24 h, wells were washed 2× and detached with 250 µl, 0.0125% (w/v) trypsin in versene for 5 min at 37°C. Wells were then carefully washed 2× to remove weak binders. Trypsin in versene (250 µl of 0.05% (w/v)) was then added to both test dish and control dish for 5 min to remove all cells from the well, neutralised with SCM and counted. The proportion of cells remaining after the weak digestion step was determined from the ratio of results from test and control plates. All assays were performed in triplicate.

COS-7 S10 cells = assay: Immunofluorescence of MTOC and EB3 bundles; type: cell-based, monkey; details: COS-7 S10, S100P induced
Procedure: Immunofluorescent staining was carried out as previously described. COS-7 S10 and MCF-7 cells were induced for 48 h prior to plating at 25,000 cells/well onto either untreated or fibronectin-coated (2.5 µg/cm^2) glass coverslips in a 24-well plate. After a further 48 h, cells were washed once in Cytoskeleton Buffer (CB: 150 mM NaCl, 5 mM MgC1_2, 5 mM EGTA, 5 mM glucose, 10 mM 2-(N-morpholino) ethanesulfonic acid, pH 6.1) prior to fixing with 3.7% (w/v) paraformaldehyde in CB at 37°C for 20 min. Cells were permeabilised with 1% (v/v) Triton X-100 in CB for 2 min and blocked with 5% (v/v) goat serum in CB for 60 min before incubation with rabbit anti-EB3 (Abcam ab157217) and mouse anti-α-tubulin (Sigma T5168) (dilution between 1/400 and 1/500) in 1% (v/v) goat serum in CB for 60 min at room temperature. […] Quantification of the presence of EB3 clusters at the cell periphery or well-defined MTOC was performed by counting the number per cell in about 100 cells selected at random. […] For MTOC quantification, cells and MTOC were graded as shown in Figure 4C′ where organisation is defined as (1) not visible or poorly structured organisation; (2) visible but poorly formed; (3) visible and defined; and (4) well defined and extensive regions. […]

COS-7 cells = assay: Living colour expression: YFP-S100P with CFP-EB3; type: cell-based, monkey; details: high YFP-S100P, 24 h
Procedure: S100P fused to yellow fluorescent protein (YFP), and EB3 fused to cyan fluorescent protein (CFP) (EB3-CFP) expression plasmids, pYFP-S100P and pCFP-EB3 were constructed, respectively. COS-7 cells were transiently transfected with the two plasmids and images were recorded using a LSM 5 confocal microscope 24 h after transfection. CFP: excitation = 436 nm, emission = 480 nm; YFP: excitation = 500 nm, emission = 520 nm.

[2] = system: nonmuscle myosin (NM) isoforms; details: ref [10]; cited from earlier work
Description: Overexpression of S100P promotes breast cancer metastasis in animals and elevated levels in primary breast cancers are associated with poor patient outcomes.

calcium concentration above which complex starts to form (α,β-tubulin; 0.15 M NaCl, 2 µM S100P): above 30 µM
calcium concentration saturating the reaction (α,β-tubulin; 0.15 M NaCl, 2 µM S100P): 0.2 mM
Kd (α,β-tubulin; Kd from association/dissociation rate constants, 150mM NaCl, 0.5mM CaCl2, single cycle, S100P 20-2000 nM, CM5 chip, read-out: Kinetic dissociation constant Kd): 120 ± 12 nM
Kd (α,β-tubulin; Kd from rate constants, 150mM NaCl, 0.5mM CaCl2, multiple cycles, read-out: Kinetic dissociation constant Kd): 210 ± 90 nM
Kinetic dissociation constant Kd (α,β-tubulin; Kd from rate constants, 150M NaCl (so in the source), EDTA 5mM, multiple cycles, 1L = incalculably large): 1 L
Kd (α,β-tubulin; Kd from rate constants, 300M NaCl (so in the source), 0.5mM CaCl2, multiple cycles, read-out: Kinetic dissociation constant Kd): 890 ± 90 nM
Kd (α,β-tubulin; Kd from rate constants, 500M NaCl (so in the source), 0.5mM CaCl2, multiple cycles, read-out: Kinetic dissociation constant Kd): 8300 ± 700 nM
calcium concentration at saturation of binding (α,β-tubulin; SPR, Figure 2F-H): 200 µM
Equilibrium dissociation constant Kd (α,β-tubulin; at or near equilibrium, 150M NaCl (so in the source), EDTA 5mM, multiple cycles, 1L = incalculably large): 1 L
Kd (α,β-tubulin; at or near equilibrium, 300M NaCl (so in the source), 0.5mM CaCl2, multiple cycles, read-out: Equilibrium dissociation constant Kd): 1100 ± 160 nM
B1: S100P: recombinant or doxycycline-induced overexpressed S100P protein (protein)
chain: MTELETAMGMIIDVFSRYSGSEGSTQTLTKGELKVLMEKELPGFLQSGKDKDAVDKLLKDLDANGDAQVDFSEFIVFVAAITSACHKYFEKAGLK
S100P-enhanced cell migration (Rama 37-T25 cells): 3–4 folds
binding of S100P to tubulin subunits and half molecules [1]: interacted with both α and β-tubulin subunits and with all four half molecules
fold decrease in strength of adhesion (HeLa-A3 cells): 1.58 fold
reduction in percentage of cells with EB3 bundles at periphery (COS-7 S10 cells): 52%
reduction in percentage of well-defined MTOCs per cell (COS-7 S10 cells): 31%
distribution of peripheral MTs (COS-7 cells): more dispersed distribution of cyan-labelled peripheral MTs
order of interaction with NM isoforms [2]: IIA > IIC > IIB
